# From publication PMC9406194
# Assays:
# hemoglobin = test: 2DPC hydrogel aptasensor (Debye ring); details: DNA-H1-960, 500 uM protein; same limit as blank; 5'-NH2-(CH2)6 and 3'-(CH2)6-NH2; amide-linked to hydrogel carboxyl groups; 10 mM phosphate-buffered saline, pH 7.40 (one test at pH 5.00), 1 h immersion; temperature of the binding assay not stated
# trypsin = test: 2DPC hydrogel aptasensor (Debye ring); details: DNA-H1-960, 500 uM protein; same limit as blank; 5'-NH2-(CH2)6 and 3'-(CH2)6-NH2; amide-linked to hydrogel carboxyl groups; 10 mM phosphate-buffered saline, pH 7.40 (one test at pH 5.00), 1 h immersion; temperature of the binding assay not stated
sequence,measurement,setting,value
ATCTACGAATTCATCAGGGCTAAAGAGTGCAGAGTTACTTAG [lysozyme-binding aptamer],binding signal (nm particle spacing decrease),hemoglobin,< 12.7
same,binding signal (nm particle spacing decrease),trypsin,< 12.7
